He/Con_2aH data for 28 molecules are collected here from patent publication US20180155451A1 (published 2018).

B1: GpH7-A5/GpH7-B3 variant S324_02A/GpL16-k0 (antibody, human IgG1, kappa)
heavy 1: not shown
heavy 2: not shown
light: DIVMTQSPLSLPVTPGEPASISCQASESLVHSNRNTYLHWYLQKPGQSPQLLIYKVSNRFSGVPDRFSGSGSGTDFTLKISRVEAEDVGVYYCSQNTHVPPTFGQGTKVEIERTVAAPSVFIFPPSDEQLKSGTASVVCLLNNFYPREAKVQWKVDNALQSGNSQESVTEQDSKDSTYSLSSTLTLSKADYEKHKVYACEVTHQGLSSPVTKSFNRGEC
notes: also called He Ab S324_02A
B2: GpH7-A5/GpH7-B3 variant I332_03V/GpL16-k0 (antibody, human IgG1, kappa)
heavy 1: not shown
heavy 2: not shown
light: B1 light
notes: also called He Ab I332_03V
B3: GpH7-A5/GpH7-B3 variant I332_19Q/GpL16-k0 (antibody, human IgG1, kappa)
heavy 1: not shown
heavy 2: not shown
light: B1 light
notes: also called He Ab I332_19Q
B4: GpH7-A5/GpH7-B3 variant S337_09D/GpL16-k0 (antibody, human IgG1, kappa)
heavy 1: not shown
heavy 2: not shown
light: B1 light
notes: also called He Ab S337_09D
B5: GpH7-A5/GpH7-B3 variant H268_09D/GpL16-k0 (antibody, human IgG1, kappa)
heavy 1: not shown
heavy 2: not shown
light: B1 light
notes: also called He Ab H268_09D
B6: GpH7-A5/GpH7-B3 variant I332_10E/GpL16-k0 (antibody, human IgG1, kappa)
heavy 1: not shown
heavy 2: not shown
light: B1 light
notes: also called He Ab I332_10E
B7: GpH7-A5/GpH7-B3 variant T335_01G/GpL16-k0 (antibody, human IgG1, kappa)
heavy 1: not shown
heavy 2: not shown
light: B1 light
notes: also called He Ab T335_01G
B8: GpH7-A5/GpH7-B3 variant T335_10E/GpL16-k0 (antibody, human IgG1, kappa)
heavy 1: not shown
heavy 2: not shown
light: B1 light
notes: also called He Ab T335_10E
B9: GpH7-A5/GpH7-B3 variant K326_10E/GpL16-k0 (antibody, human IgG1, kappa)
heavy 1: not shown
heavy 2: not shown
light: B1 light
notes: also called He Ab K326_10E
B10: GpH7-A5/GpH7-B3 variant K334_14T/GpL16-k0 (antibody, human IgG1, kappa)
heavy 1: not shown
heavy 2: not shown
light: B1 light
notes: also called He Ab K334_14T
B11: GpH7-A5/GpH7-B3 variant P271_01G/GpL16-k0 (antibody, human IgG1, kappa)
heavy 1: not shown
heavy 2: not shown
light: B1 light
notes: also called He Ab P271_01G
B12: GpH7-A5/GpH7-B3 variant L328_14T/GpL16-k0 (antibody, human IgG1, kappa)
heavy 1: not shown
heavy 2: not shown
light: B1 light
notes: also called He Ab L328_14T
B13: GpH7-A5/GpH7-B3 variant K334_03V/GpL16-k0 (antibody, human IgG1, kappa)
heavy 1: not shown
heavy 2: not shown
light: B1 light
notes: also called He Ab K334_03V
B14: GpH7-A5/GpH7-B3 variant T335_07I/GpL16-k0 (antibody, human IgG1, kappa)
heavy 1: not shown
heavy 2: not shown
light: B1 light
notes: also called He Ab T335_07I
B15: GpH7-A5/GpH7-B3 variant I332_15Y/GpL16-k0 (antibody, human IgG1, kappa)
heavy 1: not shown
heavy 2: not shown
light: B1 light
notes: also called He Ab I332_15Y
B16: GpH7-A5/GpH7-B3 variant K334_16H/GpL16-k0 (antibody, human IgG1, kappa)
heavy 1: not shown
heavy 2: not shown
light: B1 light
notes: also called He Ab K334_16H
B17: GpH7-A5/GpH7-B3 variant I332_18N/GpL16-k0 (antibody, human IgG1, kappa)
heavy 1: not shown
heavy 2: not shown
light: B1 light
notes: also called He Ab I332_18N
B18: GpH7-A5/GpH7-B3 variant S337_16H/GpL16-k0 (antibody, human IgG1, kappa)
heavy 1: not shown
heavy 2: not shown
light: B1 light
notes: also called He Ab S337_16H
B19: GpH7-A5/GpH7-B3 variant Q295_07I/GpL16-k0 (antibody, human IgG1, kappa)
heavy 1: not shown
heavy 2: not shown
light: B1 light
notes: also called He Ab Q295_07I
B20: GpH7-A5/GpH7-B3 variant H268_18N/GpL16-k0 (antibody, human IgG1, kappa)
heavy 1: not shown
heavy 2: not shown
light: B1 light
notes: also called He Ab H268_18N
B21: GpH7-A5/GpH7-B3 variant K334_04F/GpL16-k0 (antibody, human IgG1, kappa)
heavy 1: not shown
heavy 2: not shown
light: B1 light
notes: also called He Ab K334_04F
B22: GpH7-A5/GpH7-B3 variant S324_09D/GpL16-k0 (antibody, human IgG1, kappa)
heavy 1: not shown
heavy 2: not shown
light: B1 light
notes: also called He Ab S324_09D
B23: GpH7-A5/GpH7-B3 variant I332_16H/GpL16-k0 (antibody, human IgG1, kappa)
heavy 1: not shown
heavy 2: not shown
light: B1 light
notes: also called He Ab I332_16H
B24: GpH7-A5/GpH7-B3 variant S324_06M/GpL16-k0 (antibody, human IgG1, kappa)
heavy 1: not shown
heavy 2: not shown
light: B1 light
notes: also called He Ab S324_06M
B25: GpH7-A5/GpH7-B3 variant S239_09D/GpL16-k0 (antibody, human IgG1, kappa)
heavy 1: not shown
heavy 2: not shown
light: B1 light
notes: also called He Ab S239_09D
B26: GpH7-A5/GpH7-B3 variant K326_14T/GpL16-k0 (antibody, human IgG1, kappa)
heavy 1: not shown
heavy 2: not shown
light: B1 light
notes: also called He Ab K326_14T
B27: GpH7-A5/GpH7-B3 variant S337_10E/GpL16-k0 (antibody, human IgG1, kappa)
heavy 1: not shown
heavy 2: not shown
light: B1 light
notes: also called He Ab S337_10E
B28: GpH7-A5/GpH7-B3 variant I332_09D/GpL16-k0 (antibody, human IgG1, kappa)
heavy 1: not shown
heavy 2: not shown
light: B1 light
notes: also called He Ab I332_09D

This assay concerns the target T1, FcγRIIa H (human, UniProt P12318 34-217).
T1 construct: extracellular domain; also called FcgRIIa H type; 2aH; not shown: His tag at the C terminus
T1 sequence (looked up): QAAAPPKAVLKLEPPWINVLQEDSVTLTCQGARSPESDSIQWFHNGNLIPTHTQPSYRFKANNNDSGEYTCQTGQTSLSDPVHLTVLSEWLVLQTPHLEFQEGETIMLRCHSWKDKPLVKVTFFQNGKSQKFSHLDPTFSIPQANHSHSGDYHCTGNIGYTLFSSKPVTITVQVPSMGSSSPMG
Description: SPR Biacore, relative binding.
As to B1, the He/Con_2aH is 102 % of GpH7-A5/GpH7-B3/GpL16-k0 (=100).

On to B2, for which the He/Con_2aH is 105 % of GpH7-A5/GpH7-B3/GpL16-k0 (=100).

With B3, the He/Con_2aH is 108 % of GpH7-A5/GpH7-B3/GpL16-k0 (=100).

For the molecule B4, the He/Con_2aH was 107 % of GpH7-A5/GpH7-B3/GpL16-k0 (=100).

For B5, the He/Con_2aH was 133 % of GpH7-A5/GpH7-B3/GpL16-k0 (=100).

For the molecule B6, the He/Con_2aH was 108 % of GpH7-A5/GpH7-B3/GpL16-k0 (=100).

Turning to B7, the He/Con_2aH was 103 % of GpH7-A5/GpH7-B3/GpL16-k0 (=100).

Turning to B8, the He/Con_2aH was 108 % of GpH7-A5/GpH7-B3/GpL16-k0 (=100).

In the case of B9, the He/Con_2aH is 102 % of GpH7-A5/GpH7-B3/GpL16-k0 (=100).

B10: the He/Con_2aH is 103 % of GpH7-A5/GpH7-B3/GpL16-k0 (=100).

As for B11, the He/Con_2aH was 107 % of GpH7-A5/GpH7-B3/GpL16-k0 (=100).

For the molecule B12, the He/Con_2aH was 116 % of GpH7-A5/GpH7-B3/GpL16-k0 (=100).

On to B13, for which the He/Con_2aH was 109 % of GpH7-A5/GpH7-B3/GpL16-k0 (=100).

For the molecule B14, the He/Con_2aH is 108 % of GpH7-A5/GpH7-B3/GpL16-k0 (=100).

As for B15, the He/Con_2aH was 115 % of GpH7-A5/GpH7-B3/GpL16-k0 (=100).

In the case of B16, the He/Con_2aH is 104 % of GpH7-A5/GpH7-B3/GpL16-k0 (=100).

For the molecule B17, the He/Con_2aH was 110 % of GpH7-A5/GpH7-B3/GpL16-k0 (=100).

For the molecule B18, the He/Con_2aH is 101 % of GpH7-A5/GpH7-B3/GpL16-k0 (=100).

Regarding B19, the He/Con_2aH was 102 % of GpH7-A5/GpH7-B3/GpL16-k0 (=100).

As to B20, the He/Con_2aH is 112 % of GpH7-A5/GpH7-B3/GpL16-k0 (=100).

Take B21: the He/Con_2aH was 106 % of GpH7-A5/GpH7-B3/GpL16-k0 (=100).

Take B22: the He/Con_2aH was 106 % of GpH7-A5/GpH7-B3/GpL16-k0 (=100).

For B23, the He/Con_2aH was 109 % of GpH7-A5/GpH7-B3/GpL16-k0 (=100).

As for B24, the He/Con_2aH was 117 % of GpH7-A5/GpH7-B3/GpL16-k0 (=100).

On to B25, for which the He/Con_2aH was 114 % of GpH7-A5/GpH7-B3/GpL16-k0 (=100).

For the molecule B26, the He/Con_2aH is 114 % of GpH7-A5/GpH7-B3/GpL16-k0 (=100).

B27: the He/Con_2aH was 102 % of GpH7-A5/GpH7-B3/GpL16-k0 (=100).

Take B28: the He/Con_2aH was 118 % of GpH7-A5/GpH7-B3/GpL16-k0 (=100).
